Data on 5 molecules can be found in patent US20230303690A1 (published 2023).

Residue numbers refer to the chain shown, from its start.

Assay [1] addresses T1, human LAG3 expressed on cells (human, UniProt P18627 23-525).
T1 construct: whole, on cells
T1 sequence (looked up): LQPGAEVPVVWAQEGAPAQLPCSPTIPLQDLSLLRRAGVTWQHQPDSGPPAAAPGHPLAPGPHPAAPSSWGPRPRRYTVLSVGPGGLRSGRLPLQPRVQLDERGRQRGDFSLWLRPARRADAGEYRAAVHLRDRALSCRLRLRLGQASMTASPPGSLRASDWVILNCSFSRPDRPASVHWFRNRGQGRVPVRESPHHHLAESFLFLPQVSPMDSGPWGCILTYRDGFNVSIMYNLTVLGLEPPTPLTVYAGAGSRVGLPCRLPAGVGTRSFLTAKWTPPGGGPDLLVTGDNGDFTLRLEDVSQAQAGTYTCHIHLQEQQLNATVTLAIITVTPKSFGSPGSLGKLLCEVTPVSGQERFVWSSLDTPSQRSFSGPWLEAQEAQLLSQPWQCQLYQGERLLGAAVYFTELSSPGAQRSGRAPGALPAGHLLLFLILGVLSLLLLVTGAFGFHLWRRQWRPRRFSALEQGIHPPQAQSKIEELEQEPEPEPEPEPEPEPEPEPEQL
Description: cell ELISA, 293T-hLAG3 cells. The procedure:
Each well was treated with stimulants. The cells were then fixed and blocked with Blocking buffer. The Primary antibodies were added. The wells were washed and a HRP-conjugated secondary antibody was added. The wells were washed with 1x PBS and a solution containing TMB (Biopanda, TMB-S-004) was added. The TMB reacted with HRP to change the color thereof from colorless to blue. An acid stop solution (Solarbio, C1058) was then added to stop the reaction and change the blue color to yellow.
Materials are listed below: [0072] […] 2) Blocking buffer: 1×PBS+3% BSA (Sigma, B2064); [0074] […] [0075] 4) Secondary antibody: Goat anti-human IgG1 Fc antibody, HRP (1:2500, invitrogen, A18817). [0076]
In general terms: ELISA stands for enzyme-linked immunosorbent assay.

In assay [2] the target is human LAG3 expressed on cells (human) (UniProt P18627). Description: cell-based or functional assay.

B1: sdAb No. 17-H1 (VHH)
VHH: QLQLVESGGGLVQPGGSLRLSCAASGLTLDAYAIGWFRQAPGKEREGLACISGSDGSTHYLDSVKGRFTISRDNGKNTMALQMNSLQFGDTAIYYCAARRGSCSGSWTYWGQGTQVTVSS
notes: Modified sdAb No. 17 (CDR1 DG to DA); not shown: Fc part implied by anti-human IgG1 Fc detection
By EC50 is commonly meant the concentration that produces a half-maximal response. Read a low EC50 as an effect from little substance. Regarding B1, in assay [1], the 50% effective concentration (EC50) was determined as 1.01 nM, the “OD450 at 0.0045725 ug/ml” value was 0.101, the “OD450 at 0.0137174 ug/ml” value is 0.242 and the “OD450 at 0.0411523 ug/ml” value turned out to be 0.527. In assay [1], the “OD450 at 0.1234568 ug/ml” value was determined as 0.945, the “OD450 at 0.3703704 ug/ml” value was 1.27, the “OD450 at 1.111111 ug/ml” value turned out to be 1.4 and the “OD450 at 3.333333 ug/ml” value turned out to be 1.44. The “OD450 at 10 ug/ml” value in assay [1] amounted to 1.5.

B2: sdAb No. 17-H4 (VHH)
VHH: B1 VHH with A31G, D55E
notes: Modified sdAb No. 17 (CDR2 DG to EG); not shown: Fc part implied by anti-human IgG1 Fc detection
B2: in assay [1], the half-maximal effective concentration (EC50) was 0.758 nM, the “OD450 at 0.0045725 ug/ml” value was 0.092, the “OD450 at 0.0137174 ug/ml” value was found to be 0.232 and the “OD450 at 0.0411523 ug/ml” value turned out to be 0.432. Also, in assay [1], the “OD450 at 0.1234568 ug/ml” value was 0.745, the “OD450 at 0.3703704 ug/ml” value amounted to 0.962, the “OD450 at 1.111111 ug/ml” value worked out at 0.979 and the “OD450 at 3.333333 ug/ml” value stood at 0.905. Besides, in assay [1], the “OD450 at 10 ug/ml” value is 1.18.

B3: sdAb No. 17-H2 (VHH)
VHH: B1 VHH with D30E, A31G
notes: Modified sdAb No. 17 (CDR1 DG to EG); not shown: Fc part implied by anti-human IgG1 Fc detection
Consider B3, for which, in assay [1], the 50% effective concentration (EC50) amounted to 1.07 nM, the “OD450 at 0.0045725 ug/ml” value was 0.105, the “OD450 at 0.0137174 ug/ml” value was 0.238 and the “OD450 at 0.0411523 ug/ml” value came to 0.458. Also, in assay [1], the “OD450 at 0.1234568 ug/ml” value stood at 0.9, the “OD450 at 0.3703704 ug/ml” value was determined as 1.25, the “OD450 at 1.111111 ug/ml” value came out at 1.35 and the “OD450 at 3.333333 ug/ml” value is 1.28. In addition, in assay [1], the “OD450 at 10 ug/ml” value was 1.4.

B4: sdAb No. 17-H3 (VHH)
VHH: B1 VHH with A31G, G56A
notes: Modified sdAb No. 17 (CDR2 DG to DA); not shown: Fc part implied by anti-human IgG1 Fc detection
For B4, in assay [1], the EC50 turned out to be 1.01 nM, the “OD450 at 0.0045725 ug/ml” value came to 0.096, the “OD450 at 0.0137174 ug/ml” value worked out at 0.208 and the “OD450 at 0.0411523 ug/ml” value was 0.43. In assay [1], the “OD450 at 0.1234568 ug/ml” value turned out to be 0.818, the “OD450 at 0.3703704 ug/ml” value worked out at 1.11, the “OD450 at 1.111111 ug/ml” value was determined as 1.21 and the “OD450 at 3.333333 ug/ml” value worked out at 1.13. For the same molecule, the “OD450 at 10 ug/ml” value in assay [1] amounted to 1.28.

B5: sdAb fusion 25-2015-3 (Fc fusion, not shown: a dimerising Fc or GST)
chain: QLQLVESGGGLVQAGGSLRLSCAASGSIESFSFMGWYRQAPGKQRELVAGFTGAASLSFSTYTDAVKGRFTISRDNAKNTVYLQMNSLKPEDTAVYFCNVDPWSQSWPGRYWGQGTQVTVSSGGGGSGGGGSGGGGSQLQLVESGGGLAQTGGSLRLSCAAAGFTFDDTATGWFRQAPGKNREGVACISSSDGRIHYIDSAKGRFTISKDNAKKTVYLQMDSLKPEDTAVYYCAAARKGSTDCQGAIWGSWGQGTQVIVSSEPKSCDKTHTCPPCPAPELLG
In assay [2], B5 showed an Efficacy (Normalized to BMS) of 113%; an IL-2, % of BMS, at 0.001016105 ug/mL of 0%; an IL-2, % of BMS, at 0.003048316 ug/mL of 10.7%; an IL-2, % of BMS, at 0.009144947 ug/mL of 7.28%. In assay [2], this molecule showed an IL-2, % of BMS, at 0.027434842 ug/mL of 30.2%; an IL-2, % of BMS, at 0.082304527 ug/mL of 10.3%; an IL-2, % of BMS, at 0.24691358 ug/mL of 35.4%; an IL-2, % of BMS, at 0.740740741 ug/mL of 59.3%. For the same molecule, in assay [2], the IL-2, % of BMS, at 2.222222222 ug/mL was determined as 96.8%; the IL-2, % of BMS, at 6.666666667 ug/mL was determined as 112%; the IL-2, % of BMS, at 20 ug/mL stood at 116%; the Jurkat T-hLAG3 Assay EC50 came out at 8.01 nM.
